Measured values as given in patent US20240132485A1, “HETEROCYCLIC CULLIN RING UBIQUITIN LIGASE COMPOUNDS AND USES THEREOF” (CEMM - FORSCHUNGSZENTRUM FÜR MOLEKULARE MEDIZIN GMBH, priority 2020, published 2024).

Assays:
[1] = biological target: Nanoluc_DDB1 (N-terminal Nanoluc luciferase, G4S linker, DDB1 (FL)) (UniProt Q16531); assay: NanoBRET in HEK293T cells, 10 µM compound Example 3-12; class D = 1-2 fold increase
[2] = biological target: Nanoluc_DDB1 (N-terminal Nanoluc luciferase, G4S linker, DDB1 (FL)) (UniProt Q16531); assay: NanoBRET in HEK293T cells, 10 µM compound Example 3-64; class A = greater than 4-fold increase
[3] = biological target: Nanoluc_DDB1 (N-terminal Nanoluc luciferase, G4S linker, DDB1 (FL)) (UniProt Q16531); assay: NanoBRET in HEK293T cells, 10 µM compound Example 3-59; class C = 2-3 fold increase
[4] = biological target: Nanoluc_DDB1 (N-terminal Nanoluc luciferase, G4S linker, DDB1 (FL)) (UniProt Q16531); assay: NanoBRET in HEK293T cells, 10 µM compound Example 3-44; class A = greater than 4-fold increase
[5] = biological target: Nanoluc_DDB1 (N-terminal Nanoluc luciferase, G4S linker, DDB1 (FL)) (UniProt Q16531); assay: NanoBRET in HEK293T cells, 10 µM compound Example 3-5; class B = 3-4 fold increase
[6] = biological target: Nanoluc_DDB1 (N-terminal Nanoluc luciferase, G4S linker, DDB1 (FL)) (UniProt Q16531); assay: NanoBRET in HEK293T cells, 10 µM compound Example 3-28; class B = 3-4 fold increase
[7] = biological target: Nanoluc_DDB1 (N-terminal Nanoluc luciferase, G4S linker, DDB1 (FL)) (UniProt Q16531); assay: NanoBRET in HEK293T cells, 10 µM compound Example 3-18; class C = 2-3 fold increase
[8] = biological target: Nanoluc_DDB1 (N-terminal Nanoluc luciferase, G4S linker, DDB1 (FL)) (UniProt Q16531); assay: NanoBRET in HEK293T cells, 10 µM compound Example 3-40; class B = 3-4 fold increase
[9] = biological target: Nanoluc_DDB1 (N-terminal Nanoluc luciferase, G4S linker, DDB1 (FL)) (UniProt Q16531); assay: NanoBRET in HEK293T cells, 10 µM compound Example 3-26; class C = 2-3 fold increase
[10] = biological target: Nanoluc_DDB1 (N-terminal Nanoluc luciferase, G4S linker, DDB1 (FL)) (UniProt Q16531); assay: NanoBRET in HEK293T cells, 10 µM compound Example 3-14; class A = greater than 4-fold increase
[11] = biological target: Nanoluc_DDB1 (N-terminal Nanoluc luciferase, G4S linker, DDB1 (FL)) (UniProt Q16531); assay: NanoBRET in HEK293T cells, 10 µM compound Example 3-36; class C = 2-3 fold increase
[12] = biological target: Nanoluc_DDB1 (N-terminal Nanoluc luciferase, G4S linker, DDB1 (FL)) (UniProt Q16531); assay: NanoBRET in HEK293T cells, 10-point titration of compound Example 3-3; class E = >10 µM
[13] = biological target: Nanoluc_DDB1 (N-terminal Nanoluc luciferase, G4S linker, DDB1 (FL)) (UniProt Q16531); assay: NanoBRET in HEK293T cells, 10 µM compound Example 3-61; class A = greater than 4-fold increase
[14] = biological target: Nanoluc_DDB1 (N-terminal Nanoluc luciferase, G4S linker, DDB1 (FL)) (UniProt Q16531); assay: NanoBRET in HEK293T cells, 10 µM compound Example 3-15; class D = 1-2 fold increase
[15] = biological target: Nanoluc_DDB1 (N-terminal Nanoluc luciferase, G4S linker, DDB1 (FL)) (UniProt Q16531); assay: NanoBRET in HEK293T cells, 10-point titration of compound Example 3-14; class A = EC50<=0.25 µM
[16] = biological target: Nanoluc_DDB1 (N-terminal Nanoluc luciferase, G4S linker, DDB1 (FL)) (UniProt Q16531); assay: NanoBRET in HEK293T cells, 10 µM compound Example 3-30; class C = 2-3 fold increase
[17] = biological target: Nanoluc_DDB1 (N-terminal Nanoluc luciferase, G4S linker, DDB1 (FL)) (UniProt Q16531); assay: NanoBRET in HEK293T cells, 10 µM compound Example 3-17; class A = greater than 4-fold increase
[18] = biological target: Nanoluc_DDB1 (N-terminal Nanoluc luciferase, G4S linker, DDB1 (FL)) (UniProt Q16531); assay: NanoBRET in HEK293T cells, 10 µM compound Example 3-23; class B = 3-4 fold increase
[19] = biological target: Nanoluc_DDB1 (N-terminal Nanoluc luciferase, G4S linker, DDB1 (FL)) (UniProt Q16531); assay: NanoBRET in HEK293T cells, 10-point titration of compound Example 3-4; class A = EC50<=0.25 µM
[20] = biological target: Nanoluc_DDB1 (N-terminal Nanoluc luciferase, G4S linker, DDB1 (FL)) (UniProt Q16531); assay: NanoBRET in HEK293T cells, 10 µM compound Example 3-29; class B = 3-4 fold increase
[21] = biological target: Nanoluc_DDB1 (N-terminal Nanoluc luciferase, G4S linker, DDB1 (FL)) (UniProt Q16531); assay: NanoBRET in HEK293T cells, 10-point titration of compound Example 3-50; class A = EC50<=0.25 µM
[22] = biological target: Nanoluc_DDB1 (N-terminal Nanoluc luciferase, G4S linker, DDB1 (FL)) (UniProt Q16531); assay: NanoBRET in HEK293T cells, 10 µM compound Example 3-22; class B = 3-4 fold increase
[23] = biological target: Nanoluc_DDB1 (N-terminal Nanoluc luciferase, G4S linker, DDB1 (FL)) (UniProt Q16531); assay: NanoBRET in HEK293T cells, 10 µM compound Example 3-63; class B = 3-4 fold increase
[24] = biological target: Nanoluc_DDB1 (N-terminal Nanoluc luciferase, G4S linker, DDB1 (FL)) (UniProt Q16531); assay: NanoBRET in HEK293T cells, 10 µM compound Example 3-54; class C = 2-3 fold increase
[25] = biological target: Nanoluc_DDB1 (N-terminal Nanoluc luciferase, G4S linker, DDB1 (FL)) (UniProt Q16531); assay: NanoBRET in HEK293T cells, 10 µM compound Example 3-4; class A = greater than 4-fold increase
[26] = biological target: Nanoluc_DDB1 (N-terminal Nanoluc luciferase, G4S linker, DDB1 (FL)) (UniProt Q16531); assay: NanoBRET in HEK293T cells, 10 µM compound Example 3-6; class C = 2-3 fold increase

Nanoluc_DDB1 (N-terminal Nanoluc luciferase, G4S linker, DDB1 (FL)), sequence (Q16531 other isoform, or with tags, fused parts or gaps): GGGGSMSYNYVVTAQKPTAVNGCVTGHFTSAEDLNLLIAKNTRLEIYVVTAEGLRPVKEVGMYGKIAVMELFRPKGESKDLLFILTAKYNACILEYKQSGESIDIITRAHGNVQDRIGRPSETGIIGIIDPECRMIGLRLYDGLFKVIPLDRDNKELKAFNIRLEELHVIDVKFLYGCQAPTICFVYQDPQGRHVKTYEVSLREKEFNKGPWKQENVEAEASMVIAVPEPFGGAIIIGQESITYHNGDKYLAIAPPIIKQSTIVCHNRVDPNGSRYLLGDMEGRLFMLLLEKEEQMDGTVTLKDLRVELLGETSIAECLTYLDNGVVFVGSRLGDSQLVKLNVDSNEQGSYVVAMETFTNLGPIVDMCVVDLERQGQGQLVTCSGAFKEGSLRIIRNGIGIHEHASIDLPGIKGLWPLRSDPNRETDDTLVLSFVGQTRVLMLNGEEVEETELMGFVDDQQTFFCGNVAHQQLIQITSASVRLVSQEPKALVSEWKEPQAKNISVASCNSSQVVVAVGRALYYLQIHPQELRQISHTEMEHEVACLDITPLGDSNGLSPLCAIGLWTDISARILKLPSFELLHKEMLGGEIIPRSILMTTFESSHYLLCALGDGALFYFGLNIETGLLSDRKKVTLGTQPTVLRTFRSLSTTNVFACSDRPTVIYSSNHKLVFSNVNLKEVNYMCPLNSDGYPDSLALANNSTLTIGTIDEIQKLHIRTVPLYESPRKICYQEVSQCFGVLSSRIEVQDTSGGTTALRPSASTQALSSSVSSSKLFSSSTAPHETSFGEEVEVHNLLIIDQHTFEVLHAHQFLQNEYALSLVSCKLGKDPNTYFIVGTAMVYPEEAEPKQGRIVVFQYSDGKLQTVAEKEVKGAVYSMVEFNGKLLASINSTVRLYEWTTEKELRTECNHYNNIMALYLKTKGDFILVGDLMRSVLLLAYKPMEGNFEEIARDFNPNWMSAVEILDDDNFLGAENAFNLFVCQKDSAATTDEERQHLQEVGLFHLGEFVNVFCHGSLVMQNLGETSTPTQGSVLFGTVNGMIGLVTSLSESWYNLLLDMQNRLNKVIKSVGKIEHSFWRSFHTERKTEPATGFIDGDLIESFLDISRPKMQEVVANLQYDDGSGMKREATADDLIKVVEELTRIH

“HaloTag_CDK12 (N-terminal HaloTag, G4S linker, CDK12 (713-1052)) (from UniProt Q9NYV4 713-1052) (enzyme)” was tested, and the NanoBRET fold increase [1] was 1 to 2 fold, the NanoBRET fold increase [2] was > 4 fold and the NanoBRET fold increase [3] was 2 to 3 fold. For the same substance, the NanoBRET fold increase [4] was > 4 fold, the NanoBRET fold increase [5] was 3 to 4 fold and the NanoBRET fold increase [6] was 3 to 4 fold. For the same substance, the NanoBRET fold increase [7] was 2 to 3 fold, the NanoBRET fold increase [8] was 3 to 4 fold and the NanoBRET fold increase [9] was 2 to 3 fold. For the same substance, the NanoBRET fold increase [10] was > 4 fold, the NanoBRET fold increase [11] was 2 to 3 fold and the EC50 [12] was > 10000 nM. For the same substance, the NanoBRET fold increase [13] was > 4 fold, the NanoBRET fold increase [14] was 1 to 2 fold and the EC50 [15] was < 250 nM. For the same substance, the NanoBRET fold increase [16] was 2 to 3 fold, the NanoBRET fold increase [17] was > 4 fold and the NanoBRET fold increase [18] was 3 to 4 fold. For the same substance, the EC50 [19] was < 250 nM, the NanoBRET fold increase [20] was 3 to 4 fold and the EC50 [21] was < 250 nM. It also gave a NanoBRET fold increase [22] of 3 to 4 fold, a NanoBRET fold increase [23] of 3 to 4 fold and a NanoBRET fold increase [24] of 2 to 3 fold. The NanoBRET fold increase [25] was > 4 fold and the NanoBRET fold increase [26] was 2 to 3 fold.
